{"source": "the DeepSol protein solubility set", "data": [{"test": "soluble on expression in E. coli; label from the status in PepcDB or PDB records", "values": [{"sequence": "MSLTKALTFTILHNDMPTYPMKRDWLFWKEVTERTGVTLKPTSVPASDYDKKRSLLIGAGDAPLLIPKTYPGQETAFVSSGAILPVSEYVRLMPNFRAKVEKWGLEGDLDSIRQADGNYYVLPGLHEKVKSGYSLSFRTDVLKKHGLDLPTTWDQVYDVLKALKAAYPDVYPFSDRWGQPTPGGALLNYLGPAFGTKAGWSYANTAWDTKARKYVFTGATDEYRQMLEYLRKLVAEKLMDPESFTQSDDDAVRKLLSGKSFVISANPQELVQNYRYNLGKQVKGATIEMIPVPIGPTGEVIVGSRLENGLMVAGRAAEGDSFVAMMQFVDWLWYSDGGQEFAKYGVEGVTYTSSGAGRYKVADGISYMGSDPSAPKDLQKDYGFTNGEFAYGGSWALVSSSFSPDEKAFQDAMAGRKLLPVDPAHPLKADEQEQATLWDTPLKDHVTQNTLKFALGKRPMSEWDAYLAELKAKNMQRYIDLHNTAYERFKKEHEGHHHHHH", "soluble on expression in E. coli": "not soluble"}, {"sequence": "TSGTLYLVGTPIGNLDDMTFRAIATLKNVDLIAAEDTRHTGKLLKHFQIATPQISYHDHNRHQRQAQLLEKLRSGLNIALVSDAGLPGISDPGFELVASAIDTEITVVPIPGV", "soluble on expression in E. coli": "not soluble"}, {"sequence": "AYQLYRNTTLGNSLQESLDELIQSQQITPQLALQVLLQFDKAINAALAQRVRNRVNFRGSLNTYRFCDNVWTFVLNDVEFREVTELIKVDKVKIVACDGKNTGSNTTE", "soluble on expression in E. coli": "soluble"}, {"sequence": "ALGAPDGVTQGASLSRSIQPLLDAHPGKTGLHVLEKGEESLLARAWLADHATETIDVQYFIWSTDNIGILASEALLRAAERGVRVRVLVDDLLIDAPPESLLALARHPRIDIRIYNPTMTVGTSKVKRLGNVVTGFRSVNQRMHDKTALFDGVVGITGGRNMADEYYDYDQEYTFRDRDILMLGPAVAEAEASFARFWESPLAVPVEKLLKKGMKKMT", "soluble on expression in E. coli": "not soluble"}, {"sequence": "MGSDKIHHHHHHVARLVASVDKYIYTVNGDTILSHQFISNNAQFGNGIEVSQDNHFPWSGEIHYEINNPNQLAFKLGIRIPSWSRNKFGLKINGKKIDLASEDGFIYINVNDESLTVDLSLDMNTKFMRSSNKVSSNYGKIAVQRGPIVYAAEETDNKAPLWNYKVETDKEPKYHYNKDLLEGVGTITVKSIAEEISPEDGPLYSTIDEATANYETDLKLIPYYAWANREEGQMQVWLNK", "soluble on expression in E. coli": "not soluble"}, {"sequence": "MTAPFNALLIANRGEIAIRIARACADLGIRSVAVFAEDDAASLHVRKADVALPLAGRGVAAYLDMDRLVALALEQGCEAIHPGYGFLAENGEFARRCQRAGIHFVGPQAEVLDLFGDKAAARALAERLEVPLVAGINRAVSVEEAEAFLEGLGDGAAVMLKALAGGGGRGMRAVEEVAQLADAYRRCRAEAQAAFGRDELYVEQRVARARHIEVQVLGDGSGAVSHLWERDCSLQRRQQKLLEIAPSPDLPEATREALIDCALRMAGAVRYRGIGTFEFLVDDERPGRFYFMEANPRIQVEHTVTEEVTGVDLLHAQLRLAAGMELAALGLERPPAIGGCAVQLRINLETLAADGSARPAVGTIGAYEPPSGPGLRVDGYGYAGYRVSPSYDSLLAKLVVRGADYPAALRRAYRALCEFRLEGVASNLDLLRNLLLHPAVQANRVDTRFVESHLETLLAPIPASHPRLRAECPLAEDAAPARVEAPLGSLPLSAPSSGVLVALEVADGERVRAGQRVAILEAMKMEFEVKAPGGGIVRRLAASLGEPLEEGATLLFLEPTEDDDEQAPTEQALDLAHIRADLAEVLERQAALGDERRPQALARRRKTGQRTARENVLDLLDEGSFSEYGGFALAAQRRRRSAEELLELSPADGLVAGTGTVGAASFGVQAARCLVLAYDYTVFAGTQGVMNHKKTDRLLGLAEQWRLPLVLFAEGGGGRPGDTDFVGVAGLDCHTFVGMARLSGLVPLVGVVSGRCFAGNAALLGCCDVIIATRDATIGMAGPAMIEGGGLGRFAAEEVGPTGVQGPNGVIDVLVEDEAEAVAVARRYLGYFQGPLPDWSCADQRELRHLVPENRLRAYDIRQAIEVLADRGSVLELRRQFAPGLVTALLRIEGRAFGLIANNPGHLGGAIDAAAGDKAARFMQLCDAFDIPIVSLCDTPGFMVGPEAEKQATVRHVSRMFVSAASLTVPFFTVVLRKGYGLGAQAMAAGSFHSPLFTVAWPSGEFGAMGLEGAVRLGFAKELAAEEDPQRREALFRGMVDKAYRNGKALNMASYLEIDAVIDPAETRAWLLRGLAVAGEPAPRAGRKRPF", "soluble on expression in E. coli": "not soluble"}, {"sequence": "MNNASGGTHSKGTATTGGTTTQAAKTNLTTTAAKGRTATPSLDEETRKRLMVEGKCFHCFKPGHISPNYLEKQIKQLKVLEQPVPEEQGVSENN", "soluble on expression in E. coli": "not soluble"}, {"sequence": "MGNMFGSSLASLFFLWATIQQIFPNHLKIAIKEFFLSTIQQISFAKRFSDKFINFFSPYVQINFSEYEDYRVNHAFDPIETYLGAKATDKAKHLRASQVRESKGLVLKRDETKVRDEYEGIRVWWEMETDSAGYKTLKLTFHRRSRDIVTNSYIKYVVEEGKSIDAKNKKMKLFTNNPSSHWGSSKTSFWRYIDFEHPATFETLAMDPKKKEQILNDLAAFNNGKDYYKKIGKAWKRGYLLYGPPGTGKSTMIAAMANLLNYSIYDLELTAIQNNSELRKILTATSNKSIIVIEDIDCSLDLTGKRKKKESNLMIWRKDGDQDNEENKSFVTLSGLLNFIDGIWSACGQERIIVFTTNHLAKLDPALIRRGRMDMHIELSYCTFEAFKTLAKNYLDLDSHPLFSKIESLMKETNIAPADVAENLMKKNRETDADGSLNDLIESLERKKKVQIAQVDEHKEYSNKIVEAFRKLF", "soluble on expression in E. coli": "soluble"}, {"sequence": "MAMLELLYTALLYLIQPLIWIRLWVRGRKAPAYRKRWGERYGFYRHPLKPGGIMLHSVSVGETLAAIPLVRALRHRYPDLPITVTTMTPTGSERVQSAFGKDVQHVYLPYDLPDALNRFLNKVDPKLVLIMETELWPNLIAALHKRKIPLVIANARLSARSAAGYAKLGKFVRRLLRRITLIAAQNEEDGARFVALGAKNNQVTVTGSLKFDISVTPQLAAKAVTLRRQWAPHRPVWIATSTHEGEESVVIAAHQALLQQFPNLLLILVPRHPERFPDAINLVRQAGLSYITRSSGEVPSTSTQVVVGDTMGELMLLYGIADLAFVGGSLVERGGHNPLEAAAHAIPVLMGPHTFNFKDICARLEQASGLITVTDATTLAKEVSSLLTDAVYRSFYGRHAVEVLYQNQGALQRLLQLLEPYLPPKTHLEHHHHHH", "soluble on expression in E. coli": "not soluble"}, {"sequence": "MGSDKIHHHHHHMIYLEQFTFPDGDRESIFFQDKVKRTCYDSYYPFQVLPGRGLERLDFDLITILYGGNGSGKSTLLNIIAEKTEIPRDAIYNKSNFFPDYVAMCEMQLKVFLPEHSRIITSDDVFDYMLNIRSLNEGIDRKREQLFDDYLEAKYSRFQLKSLADYEELKRVNHARFNSQSRFVRNELMDNAREYSNGENAFRYFTEKIDEKGLYLLDEPENSLSPKRQLELVQFIEDSARFWQCQFIIATHSPFLLALRGAKIYNLDETPVAVKRWTELENVRIYYDFFKKREREF", "soluble on expression in E. coli": "not soluble"}, {"sequence": "MAKNSPQDLINREIFSTNLNMLMAKKNIKQIDIHNKLGIPKSTITGYVKGRSLPTAGNVQKLADFFGVLKSDIDPRFDSNNIETNSNIIPSTLQKVTSTLSQLEHKRQLNVLDYAETQLEQQNTVEEPQATYYTYNYYDHAASAGTGQYLNDVQVETIELPVDYDADFVIPVYGDSMEPEYHSGDYVFIKLSINLSDGDIGVFEYYGDAYIKQLVINDSGAFLHSLNDKYDDILIDRDSDFRIIGEVIGSFTSKS", "soluble on expression in E. coli": "not soluble"}, {"sequence": "MRSDKVGSIKDLPSLPAGVKFDPSDKEILMHLEAKVSSDKRKLHPLIDEFIPTLEGENGICYTHPEKLPGVSKDGQVRHFFHRPSKAYTTGTRKRRKVSTDEEGHETRWHKTGKTRPVLSQSGETGFKKILVLYTNYGRQKKPEKTNWVMHQYHLGSSEDEKDGEPVLSKVFYQTQPRQCGSMEPKPKNLVNLNRFSYENIQAGFGYEHGGKSEETTQVIRELVVREGDGSCSFLSFTCDASKGKESFMKNQ", "soluble on expression in E. coli": "soluble"}, {"sequence": "MGSDKIHHHHHHANSTNTIVSTSNMASTAYTRKSATGWTYNLGGTATNMTFGKKTHYLKNYPNTTWHATKKRYIIKKNGVKYLYYYVTNGRKTAAGWIWHGYLQKKSYAHTATTTSSTGTGTYDSILKAAKTQLGKPYAYGGNGPSAFDCSGFTKYVFNQAIGQTLPRTAQAQYDSYTHVSAANAKAGDLIFFGTSASNITHCGIYLGNHKMIDAQLNGVITEATNVSWWHTVGYSRPATLS", "soluble on expression in E. coli": "not soluble"}, {"sequence": "SSAESASQIPKGQVDLLDFIDWSGVECLNQSSSHSLPNALKQGYREDEGLNLESDADEQLLIYIPFNQVIKLHSFAIKGPEEEGPKTVKFFSNKEHMCFSNVNDFPPSDTAELTEENLKGKPVVLKYVKFQNVRSLTIFIEANQSGSEVTKVQKIALYGST", "soluble on expression in E. coli": "soluble"}, {"sequence": "MKFLITGGAGFIGSNLAFALQERYPEAKIYVLDNFSSGHFKNLIGFKGQVITGDISDPSLWDYVRKNFHFDVIFHEAAITDTTVEDQYFMMKTNADSFRYILDLAVEWNAKVIYASSAGVYGNSPPPMREDKGLEPENIYGFSKLMMDHIAMDYMERYPEMNIVGLRYFNVYGPREDYKGKTASMIYQLAVKMIKGERPRLFKWGEQRRDFVYIKDVIKANLLALEKNVSGIFNVGTGRARSFNEIVSILNKELGTNYEIEYFDCPYDFYQKFTEADLTKIREALGYEPEYSLEEGIKDYLPYIIKRVKK", "soluble on expression in E. coli": "soluble"}, {"sequence": "MGSDKIHHHHHHMQALRKCYGIVGADDIVSEMKTWQVTSNDPHEGLTKWADGLDEAFVQLEPVATTGDGFYGHIQQTSTAELDVSVVTSTGHEIRRLDRHIRHRSADLLYVNILGRGRSEVSQRDTVVAAPMDVSIVDPRAPYSIRQEAPFQLVSIAVPPDWVEREARHCHFLSRTAAGRELSSVVWGLAKMLLAIKPDQDGLATSLAQQIHHSLALLPEMAGSDATPRVSVAMLQSYVQRHFSQPDLRAEHLARQFGISVRRVHQLFEPTGHTVSEFINDLRLARAADCLGDAALARRTISEIAWQVGYSDPSYFTRRFKRRYGCSPRAYRAAHHPAPIARLS", "soluble on expression in E. coli": "not soluble"}, {"sequence": "MNQIAIQETIQRLINQQVVPGVAWGTITEDSLSEQYTGFLGNTGPFARQKISSASLYDLASLTKVIGTTNRMLQLIDTNQLTFSTTVGEILPDYQGLSCSIGELLLHQSGLPADVVDKKNVTKKSLQEIILTHSLSERGKTTYSDLGYYLLGEIIQVLDRCSLEESFQTYVFQPMNLQHTSFTVSDFAQAVPTEITKQRGVIQGVVHDSKAYQLKAPIGSAGLFATLPDLLTFVQCFMNNRYPSGKPLFSEKMFTALWSMNQGGRTFGWEVKKTQAGADYLYHTGFTGTAIGMKKETKEALILLTNRIHPTREERGFLKARTKIYQQYF", "soluble on expression in E. coli": "not soluble"}, {"sequence": "MSLDKNDVVKKILESKKYENLDSDIVEKVVSISEKKYKLKEVENYSKKKLHQIWGSYYSAYPNWDKLLKKYNQGQLSIEDLLKIHSSTNERVATLNDFYTYVFGNIKHVSSILDFGCGFNPLALYQWNENEKIIYHAYDIDRAEIAFLSSIIGKLKTTIKYRFLNKESDVYKGTYDVVFLLKMLPVLKQQDVNILDFLQLFHTQNFVISFPIKSLSGKEKGMEENYQLWFESFTKGWIKILDSKVIGNELVYITSGFQKEGHHHHHH", "soluble on expression in E. coli": "soluble"}, {"sequence": "MTRGLDYYEVMGLTRSANDIDIRRAYRRLALKYHPDINKDGAAGDEFLRICEAYEVLCDPKTKGFYDLYGEDALKDGISDGNGGLKGPMYRFNPEESPKAVFERFFGTANPYEALEALSNQFESMTSEEAPARGKNKVYPLELTLEEIFHGCLKKVAHKRKVLLFSGEYVEEERQLTVDVKPGLPTGTRFVFEGEGNKTPKKEPGPVVFVLKPKPHPRFVRRGSDLVHKVTLPLHHALIGTTLDIRTLDDRDLKVPISDIMRPGSSLTVPGEGMPLPATPSARGNLVIEIDLLFPTHLTETQKMLLRSAFF", "soluble on expression in E. coli": "soluble"}]}]}
